Data reported in the supplement of paper PMC12764529.
± gives the half width of the 95% confidence interval.

Key:
[1] = folding stability dG unfold from trypsin proteolysis; higher = more stable
Experimental: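 Folding stability of de novo designed mini-proteins (<80 aa, no Cys; designed by TrROS, TrMRF, ProteinMPNN and the joint model) was measured by cDNA display proteolysis with trypsin and chymotrypsin. Each protease was used at 11 concentrations in a threefold dilution series plus a no-protease condition. K50 was inferred by Bayesian fitting of sequencing counts, and dG unfold was derived against a sequence-predicted unfolded-state K50 (Tsuboyama et al. method). Sequences shown include variable-length N-terminal GS-type padding (SAGGSAGG...) inside a display construct carrying a PA tag. Rows were kept only if the AF2 dimer inter-PAE was >15, to exclude likely homo-oligomers.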

[2] = folding stability dG unfold (combined trypsin and chymotrypsin); higher = more stable
In short: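 Only designs with AlphaFold2 dimer inter-PAE above 15 were retained; each was a mini-protein under 80 residues with no cysteine, in a PA-tagged cDNA display construct. After digestion with trypsin and chymotrypsin and sequencing, K50 was inferred by Bayesian fitting of counts, and unfolding free energy was derived per protease or combined against a sequence-predicted unfolded-state K50 and a shared folded-state K50.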

Row | Sequence | folding stability dG unfold [1] [kcal/mol] | folding stability dG unfold [2] [kcal/mol]
1 | SAGGSAGGSAPAEFPIEILEVERNPGNPMVEVGIKIPGDGRYIKIHFPPNGKIDIELVPLPSAGGSAGGSAG [r3_294_TrROS] | 0.265 ± 0.1 | -0.29 ± 0.16
2 | SAGGSAGGSASSSVTITNRVTNPDTGLRYITIPSKGERVTLSPDESATIPVPPDAPVSVLGSSAGGSAGGSA [r18_329_JUSTAS] | -0.694 ± 0.24 | < -1
3 | SAGGSAGGSATITISLGPPEYIEVYDPANGVKRKFPASVPKEEVAAEIEKEYPDTPVVFTTDASAGGSAGGS [r12_423_JUSTAS] | 0.394 ± 0.06 | -0.172 ± 0.32
4 | SAGGSAGGSAVKVIPFPFNEALDLLNSGEPKEIHVVGPPGWYMTVQFNPPDNNIEIDDPVPPSAGGSAGGSA [r18_400_TrROS] | 0.732 ± 0.043 | 0.194 ± 0.14
5 | SAGGSAGGSEGQPIIIKIKMENPGNGKKHKFDIMVPPGFKNAEEQANRLMNNFGPVKDVEIYPSAGGSAGGS [r12_942_TrROS] | -0.846 ± 0.3 | < -1
6 | SAGGSAGGSEPDFVVVDIPFPPDVPLEALVEFARSLPSVVVNLVDEEGRPVSIALPREAVERLASAGGSAGG [r6_791_TrMRF] | -0.347 ± 0.15 | < -1
7 | SAGGSAGGSETSIVFLEEEVLVEEEITLYRDGTPTRERRVRTERVVIRVPVKPEEDVNNPLLLSAGGSAGGS [r12_713_JUSTAS] | -0.765 ± 0.82 | < -1
8 | SAGGSAGGSGKTIIIPLPNGNVIKVEVEEGSVKITYPKPKKELIKVENPKNALKNIKTYSYKGSAGGSAGGS [r12_32_TrMRF] | -0.176 ± 0.32 | < -1
9 | SAGGSAGGSGSMAEVEAIVERAKELGLVPKSITTDPATNKPVVDLQPPSPELLEADPEILALLSAGGSAGGS [r12_482_JUSTAS] | -0.585 ± 0.23 | < -1
10 | SAGGSAGGSKIEMMHAIRDNGKPFFVRITMDIQPQKDPNGEPKVNFEPKIEIYDPDGKPIFEISAGGSAGGS [r20_224_TrROS] | 0.641 ± 0.14 | 0.392 ± 0.3
11 | SAGGSAGGSMEIVSTGSKEDAEEAVKEKVAAGEKARVVLRSPTDPTPVSEEEVTISEEELKEASAGGSAGGS [r12_241_JUSTAS] | -1.61 ± 0.88 | < -1
12 | SAGGSAGGSMERLENGIERIRLLVRFPERDEVRLIEIPLDNVTPEEIIERARELGAEEIELLESAGGSAGGS [r12_792_TrMRF] | 0.11 ± 0.26 | -0.545 ± 0.22
13 | SAGGSAGGSMIVEKKYSLDPAKGTITTTTTTVTPVPNGDSLIVSTTTTTKSVSPSESPDISSSSAGGSAGGS [r12_700_JUSTAS] | -0.39 ± 0.066 | -0.553 ± 0.24
14 | SAGGSAGGSMKVITVPLPDGGTTTYEVEKGKVTITYPPSVTKEIEVPDPSKAIENIETVSYKSSAGGSAGGS [r12_32_JUSTAS] | -0.76 ± 0.13 | < -1
15 | SAGGSAGGSMLTITVKTTDPAKGGSATTVIPVPVPGSVEEARELAEEIKKKLPPEVVEITVLESAGGSAGGS [r12_871_JUSTAS] | -0.294 ± 0.19 | < -1
16 | SAGGSAGGSMPLRLAPVPIFLPEEEAVPVIEKLIEEGTEGGVGLIVPNVISPEEAGVHPDEPVSAGGSAGGS [r12_93_TrMRF] | -0.263 ± 0.08 | < -1
17 | SAGGSAGGSMPVEVKFTVEKDPSTDLLTVTVTRPGGEVTPITYPDPNNLEAAKAAAEALAKASSAGGSAGGS [r12_1012_JUSTAS] | 0.365 ± 0.076 | -0.2 ± 0.41
18 | SAGGSAGGSMVEIDPDNLVLTIVDPETGKAAVITAPPTADGTPVIKDVVVFDPDGNPHTFTVDSAGGSAGGS [r12_952_TrMRF] | 0.666 ± 0.022 | 0.13 ± 0.091
19 | SAGGSAGGSPPYIRVKIEFQNPNGQERKFKITIPPDQPLSQAKDIAPDFAKNGYPVRIEDIEISAGGSAGGS [r12_804_TrROS] | -0.209 ± 0.17 | < -1
20 | SAGGSAGGSSAEEIAKELGYKEIEVKPLRPVSTETLDSGGYSQKTEYVTTIKLPDGTEIEIPVSAGGSAGGS [r12_221_JUSTAS] | 0.788 ± 0.025 | 0.275 ± 0.051
21 | SAGGSAGGSSSPEEIKAEFKKKGYPKVEVKPVTPDTYLVTVTSPGTGKTTEYPITGSPSGKGLSAGGSAGGS [r12_170_JUSTAS] | -0.822 ± 0.35 | < -1
22 | SAGGSAGGSSVLRVTVEIPETGETVELTVPPSVTEEDVRARIEAEGHAIEKIEVTESEVPPLASAGGSAGGS [r12_955_JUSTAS] | -0.358 ± 0.096 | < -1
23 | SAGGSAGGSVKELAKKLNIKEVKVEPVDGEKVTLIKIKVKNKKTKKEYEKTILIKDKKTGKILSAGGSAGGS [r12_133_TrROS_Hall] | -0.405 ± 0.23 | -0.845 ± 0.38
